Experimental data reported in paper PMC1931592 (BMC Pharmacology, 2007).

B1: Ac-DEVD-CHO (peptide)
peptide: Ac-DEVD-aldehyde
notes: source: bought: Peptide Institute, Inc (synthetic peptide)
B2: Ac-DNLD-CHO (peptide)
peptide: Ac-DNLD-aldehyde
notes: tetrapeptide designed by the computational APF method; so far not known in any natural caspase substrate; source: synthetic peptide (synthesized by Peptide Institute, Inc)
B3: Ac-DQTD-CHO (peptide)
peptide: Ac-DQTD-aldehyde
SMILES: CC(=O)N[C@@H](CC(=O)O)C(=O)N[C@@H](CCC(N)=O)C(=O)N[C@H](C(=O)N[C@H](C=O)CC(=O)O)[C@@H](C)O
notes: as for B1
B4: Ac-DMQD-CHO (peptide)
peptide: Ac-DMQD-aldehyde
SMILES: CSCC[C@H](NC(=O)[C@H](CC(=O)O)NC(C)=O)C(=O)N[C@@H](CCC(N)=O)C(=O)N[C@H](C=O)CC(=O)O
notes: as for B1

Columns and labels:
Assay in all cases: enzyme inhibition assay (fluorogenic substrate cleavage); one unit of active recombinant human caspase incubated with various concentrations of peptide inhibitor in 100 mM NaCl, 50 mM HEPES, 10 mM DTT, 1 mM EDTA, 10% glycerol, 0.1% CHAPS, pH 7.4, 37°C, 30 min; then 200 μM substrate (Ac-DEVD-MCA for caspases-3 and -7, Ac-IETD-MCA for caspase-8, Ac-LEHD-MCA for caspase-9); apparent Ki = IC50/(1+[S]/Km)
Settings in all cases: both partners purified
[1] = target: T1, Recombinant human caspase-7 (active) (human, UniProt P55210 1-303)
[2] = target: Recombinant human caspase-8 (active) (human, UniProt Q14790 1-479)
[3] = target: T1, Recombinant human caspase-7 (active); remark: listed apart in the source
[4] = target: T2, Recombinant human caspase-3 (active) (human, UniProt P42574 1-277)
[5] = target: T2, Recombinant human caspase-3 (active); remark: listed apart in the source

T1 sequence (P55210 whole entry): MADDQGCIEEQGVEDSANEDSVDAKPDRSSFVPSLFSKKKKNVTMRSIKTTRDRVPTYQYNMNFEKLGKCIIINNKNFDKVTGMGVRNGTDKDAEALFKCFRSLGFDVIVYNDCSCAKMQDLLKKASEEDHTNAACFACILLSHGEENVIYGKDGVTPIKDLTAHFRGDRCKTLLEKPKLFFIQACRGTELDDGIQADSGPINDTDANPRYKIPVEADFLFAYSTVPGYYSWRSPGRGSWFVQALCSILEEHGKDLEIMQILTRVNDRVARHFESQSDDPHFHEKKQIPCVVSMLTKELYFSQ
Recombinant human caspase-8 (active), sequence (Q14790 whole entry): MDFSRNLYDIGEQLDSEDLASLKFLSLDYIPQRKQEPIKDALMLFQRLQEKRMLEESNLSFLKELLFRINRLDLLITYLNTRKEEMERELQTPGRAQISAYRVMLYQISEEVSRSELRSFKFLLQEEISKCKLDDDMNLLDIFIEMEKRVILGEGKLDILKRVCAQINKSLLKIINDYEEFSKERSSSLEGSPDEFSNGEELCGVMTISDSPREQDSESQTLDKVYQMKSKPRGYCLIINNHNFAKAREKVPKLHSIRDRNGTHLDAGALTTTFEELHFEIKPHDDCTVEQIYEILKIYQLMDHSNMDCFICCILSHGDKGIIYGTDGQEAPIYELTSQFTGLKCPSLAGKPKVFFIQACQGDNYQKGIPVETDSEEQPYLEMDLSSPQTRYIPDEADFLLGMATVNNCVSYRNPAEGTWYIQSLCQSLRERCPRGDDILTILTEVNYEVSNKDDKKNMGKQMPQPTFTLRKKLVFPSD
T2 sequence (P42574 whole entry): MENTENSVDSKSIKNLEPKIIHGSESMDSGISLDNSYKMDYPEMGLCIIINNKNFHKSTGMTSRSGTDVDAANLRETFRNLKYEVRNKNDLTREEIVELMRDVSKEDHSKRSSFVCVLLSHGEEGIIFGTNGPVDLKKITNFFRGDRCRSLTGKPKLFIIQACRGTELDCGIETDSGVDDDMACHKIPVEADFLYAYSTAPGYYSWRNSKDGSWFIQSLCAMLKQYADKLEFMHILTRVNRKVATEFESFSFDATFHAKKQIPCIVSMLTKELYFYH

Binder	IC50 [1] [nM]	Ki [2] [nM]	Ki [3] [nM]	Ki [4] [nM]	IC50 [5] [nM]
B1	19.7	0.597 ± 0.095	4.48 ± 0.21	–	–
B2	–	> 200	–	–	–
B3	–	9.75 ± 1.09	21.8 ± 1.1	1.27 ± 0.11	–
B4	–	> 200	> 200	13.3 ± 0.3	193
